T1: Human CD3eg linker (human)
T1 construct: Single-chain construct; also called recombinant human CD3
T1 chain: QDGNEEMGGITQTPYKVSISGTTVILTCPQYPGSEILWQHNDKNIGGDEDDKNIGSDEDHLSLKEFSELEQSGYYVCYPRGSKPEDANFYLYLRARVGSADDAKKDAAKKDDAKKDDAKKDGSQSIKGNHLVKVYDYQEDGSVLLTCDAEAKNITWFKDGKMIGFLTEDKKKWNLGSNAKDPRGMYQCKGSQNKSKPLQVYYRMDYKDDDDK

B1: H183/L072 VL L27bH (antibody, name in Kabat numbering, V domains shown)
VH: QVQLVESGGGLVQPGRSLRLSCAASGFTFSNAWMHWVRQAPGKGLEWVAQIKDKGNAYAAYYAPSVKGRFTISRDDSKNSIYLQMNSLKTEDTAVYYCHYVHYASASTVLPAFGVDAWGQGTTVTVSS
VL: DIVMTQSPLSLPVTPGEPASISCQASQEHVHMNRNTYLHWYQQKPGQAPRLLIYKVSNRFPGVPDRFSGSGSGTDFTLKISRVEAEDVGVYYCAQGTSVPFTFGQGTKLEIK
B2: H183/L072 VL L27bN (antibody, name in Kabat numbering, V domains shown)
VH: QVQLVESGGGLVQPGRSLRLSCAASGFTFSNAWMHWVRQAPGKGLEWVAQIKDKGNAYAAYYAPSVKGRFTISRDDSKNSIYLQMNSLKTEDTAVYYCHYVHYASASTVLPAFGVDAWGQGTTVTVSS
VL: DIVMTQSPLSLPVTPGEPASISCQASQENVHMNRNTYLHWYQQKPGQAPRLLIYKVSNRFPGVPDRFSGSGSGTDFTLKISRVEAEDVGVYYCAQGTSVPFTFGQGTKLEIK
B3: H183/L072 VL L27bS (antibody, name in Kabat numbering, V domains shown)
VH: QVQLVESGGGLVQPGRSLRLSCAASGFTFSNAWMHWVRQAPGKGLEWVAQIKDKGNAYAAYYAPSVKGRFTISRDDSKNSIYLQMNSLKTEDTAVYYCHYVHYASASTVLPAFGVDAWGQGTTVTVSS
VL: DIVMTQSPLSLPVTPGEPASISCQASQESVHMNRNTYLHWYQQKPGQAPRLLIYKVSNRFPGVPDRFSGSGSGTDFTLKISRVEAEDVGVYYCAQGTSVPFTFGQGTKLEIK
B4: H183/L072 VL L27bT (antibody, name in Kabat numbering, V domains shown)
VH: QVQLVESGGGLVQPGRSLRLSCAASGFTFSNAWMHWVRQAPGKGLEWVAQIKDKGNAYAAYYAPSVKGRFTISRDDSKNSIYLQMNSLKTEDTAVYYCHYVHYASASTVLPAFGVDAWGQGTTVTVSS
VL: DIVMTQSPLSLPVTPGEPASISCQASQETVHMNRNTYLHWYQQKPGQAPRLLIYKVSNRFPGVPDRFSGSGSGTDFTLKISRVEAEDVGVYYCAQGTSVPFTFGQGTKLEIK
B5: H183/L072 VL L33A (antibody, name in Kabat numbering, V domains shown)
VH: QVQLVESGGGLVQPGRSLRLSCAASGFTFSNAWMHWVRQAPGKGLEWVAQIKDKGNAYAAYYAPSVKGRFTISRDDSKNSIYLQMNSLKTEDTAVYYCHYVHYASASTVLPAFGVDAWGQGTTVTVSS
VL: DIVMTQSPLSLPVTPGEPASISCQASQELVHMNRNTYAHWYQQKPGQAPRLLIYKVSNRFPGVPDRFSGSGSGTDFTLKISRVEAEDVGVYYCAQGTSVPFTFGQGTKLEIK
B6: H183/L072 VL L33E (antibody, name in Kabat numbering, V domains shown)
VH: QVQLVESGGGLVQPGRSLRLSCAASGFTFSNAWMHWVRQAPGKGLEWVAQIKDKGNAYAAYYAPSVKGRFTISRDDSKNSIYLQMNSLKTEDTAVYYCHYVHYASASTVLPAFGVDAWGQGTTVTVSS
VL: DIVMTQSPLSLPVTPGEPASISCQASQELVHMNRNTYEHWYQQKPGQAPRLLIYKVSNRFPGVPDRFSGSGSGTDFTLKISRVEAEDVGVYYCAQGTSVPFTFGQGTKLEIK
B7: H183/L072 VL L27bM (antibody, name in Kabat numbering, V domains shown)
VH: QVQLVESGGGLVQPGRSLRLSCAASGFTFSNAWMHWVRQAPGKGLEWVAQIKDKGNAYAAYYAPSVKGRFTISRDDSKNSIYLQMNSLKTEDTAVYYCHYVHYASASTVLPAFGVDAWGQGTTVTVSS
VL: DIVMTQSPLSLPVTPGEPASISCQASQEMVHMNRNTYLHWYQQKPGQAPRLLIYKVSNRFPGVPDRFSGSGSGTDFTLKISRVEAEDVGVYYCAQGTSVPFTFGQGTKLEIK
B8: H183/L072 VL L27bK (antibody, name in Kabat numbering, V domains shown)
VH: QVQLVESGGGLVQPGRSLRLSCAASGFTFSNAWMHWVRQAPGKGLEWVAQIKDKGNAYAAYYAPSVKGRFTISRDDSKNSIYLQMNSLKTEDTAVYYCHYVHYASASTVLPAFGVDAWGQGTTVTVSS
VL: DIVMTQSPLSLPVTPGEPASISCQASQEKVHMNRNTYLHWYQQKPGQAPRLLIYKVSNRFPGVPDRFSGSGSGTDFTLKISRVEAEDVGVYYCAQGTSVPFTFGQGTKLEIK
B9: H183/L072 VL L33N (antibody, name in Kabat numbering, V domains shown)
VH: QVQLVESGGGLVQPGRSLRLSCAASGFTFSNAWMHWVRQAPGKGLEWVAQIKDKGNAYAAYYAPSVKGRFTISRDDSKNSIYLQMNSLKTEDTAVYYCHYVHYASASTVLPAFGVDAWGQGTTVTVSS
VL: DIVMTQSPLSLPVTPGEPASISCQASQELVHMNRNTYNHWYQQKPGQAPRLLIYKVSNRFPGVPDRFSGSGSGTDFTLKISRVEAEDVGVYYCAQGTSVPFTFGQGTKLEIK
B10: H183/L072 VL L33D (antibody, name in Kabat numbering, V domains shown)
VH: QVQLVESGGGLVQPGRSLRLSCAASGFTFSNAWMHWVRQAPGKGLEWVAQIKDKGNAYAAYYAPSVKGRFTISRDDSKNSIYLQMNSLKTEDTAVYYCHYVHYASASTVLPAFGVDAWGQGTTVTVSS
VL: DIVMTQSPLSLPVTPGEPASISCQASQELVHMNRNTYDHWYQQKPGQAPRLLIYKVSNRFPGVPDRFSGSGSGTDFTLKISRVEAEDVGVYYCAQGTSVPFTFGQGTKLEIK
B11: H183/L072 VL L27bV (antibody, name in Kabat numbering, V domains shown)
VH: QVQLVESGGGLVQPGRSLRLSCAASGFTFSNAWMHWVRQAPGKGLEWVAQIKDKGNAYAAYYAPSVKGRFTISRDDSKNSIYLQMNSLKTEDTAVYYCHYVHYASASTVLPAFGVDAWGQGTTVTVSS
VL: DIVMTQSPLSLPVTPGEPASISCQASQEVVHMNRNTYLHWYQQKPGQAPRLLIYKVSNRFPGVPDRFSGSGSGTDFTLKISRVEAEDVGVYYCAQGTSVPFTFGQGTKLEIK
B12: H183/L072 VL L27bQ (antibody, name in Kabat numbering, V domains shown)
VH: QVQLVESGGGLVQPGRSLRLSCAASGFTFSNAWMHWVRQAPGKGLEWVAQIKDKGNAYAAYYAPSVKGRFTISRDDSKNSIYLQMNSLKTEDTAVYYCHYVHYASASTVLPAFGVDAWGQGTTVTVSS
VL: DIVMTQSPLSLPVTPGEPASISCQASQEQVHMNRNTYLHWYQQKPGQAPRLLIYKVSNRFPGVPDRFSGSGSGTDFTLKISRVEAEDVGVYYCAQGTSVPFTFGQGTKLEIK
B13: H183/L072 VL L33F (antibody, name in Kabat numbering, V domains shown)
VH: QVQLVESGGGLVQPGRSLRLSCAASGFTFSNAWMHWVRQAPGKGLEWVAQIKDKGNAYAAYYAPSVKGRFTISRDDSKNSIYLQMNSLKTEDTAVYYCHYVHYASASTVLPAFGVDAWGQGTTVTVSS
VL: DIVMTQSPLSLPVTPGEPASISCQASQELVHMNRNTYFHWYQQKPGQAPRLLIYKVSNRFPGVPDRFSGSGSGTDFTLKISRVEAEDVGVYYCAQGTSVPFTFGQGTKLEIK
B14: H183/L072 VL L27bI (antibody, name in Kabat numbering, V domains shown)
VH: QVQLVESGGGLVQPGRSLRLSCAASGFTFSNAWMHWVRQAPGKGLEWVAQIKDKGNAYAAYYAPSVKGRFTISRDDSKNSIYLQMNSLKTEDTAVYYCHYVHYASASTVLPAFGVDAWGQGTTVTVSS
VL: DIVMTQSPLSLPVTPGEPASISCQASQEIVHMNRNTYLHWYQQKPGQAPRLLIYKVSNRFPGVPDRFSGSGSGTDFTLKISRVEAEDVGVYYCAQGTSVPFTFGQGTKLEIK
B15: H183/L072 VL L33Q (antibody, name in Kabat numbering, V domains shown)
VH: QVQLVESGGGLVQPGRSLRLSCAASGFTFSNAWMHWVRQAPGKGLEWVAQIKDKGNAYAAYYAPSVKGRFTISRDDSKNSIYLQMNSLKTEDTAVYYCHYVHYASASTVLPAFGVDAWGQGTTVTVSS
VL: DIVMTQSPLSLPVTPGEPASISCQASQELVHMNRNTYQHWYQQKPGQAPRLLIYKVSNRFPGVPDRFSGSGSGTDFTLKISRVEAEDVGVYYCAQGTSVPFTFGQGTKLEIK
B16: H183/L072 VL L33M (antibody, name in Kabat numbering, V domains shown)
VH: QVQLVESGGGLVQPGRSLRLSCAASGFTFSNAWMHWVRQAPGKGLEWVAQIKDKGNAYAAYYAPSVKGRFTISRDDSKNSIYLQMNSLKTEDTAVYYCHYVHYASASTVLPAFGVDAWGQGTTVTVSS
VL: DIVMTQSPLSLPVTPGEPASISCQASQELVHMNRNTYMHWYQQKPGQAPRLLIYKVSNRFPGVPDRFSGSGSGTDFTLKISRVEAEDVGVYYCAQGTSVPFTFGQGTKLEIK
B17: H183/L072 VL L27bP (antibody, name in Kabat numbering, V domains shown)
VH: QVQLVESGGGLVQPGRSLRLSCAASGFTFSNAWMHWVRQAPGKGLEWVAQIKDKGNAYAAYYAPSVKGRFTISRDDSKNSIYLQMNSLKTEDTAVYYCHYVHYASASTVLPAFGVDAWGQGTTVTVSS
VL: DIVMTQSPLSLPVTPGEPASISCQASQEPVHMNRNTYLHWYQQKPGQAPRLLIYKVSNRFPGVPDRFSGSGSGTDFTLKISRVEAEDVGVYYCAQGTSVPFTFGQGTKLEIK
B18: H183/L072 VL L33K (antibody, name in Kabat numbering, V domains shown)
VH: QVQLVESGGGLVQPGRSLRLSCAASGFTFSNAWMHWVRQAPGKGLEWVAQIKDKGNAYAAYYAPSVKGRFTISRDDSKNSIYLQMNSLKTEDTAVYYCHYVHYASASTVLPAFGVDAWGQGTTVTVSS
VL: DIVMTQSPLSLPVTPGEPASISCQASQELVHMNRNTYKHWYQQKPGQAPRLLIYKVSNRFPGVPDRFSGSGSGTDFTLKISRVEAEDVGVYYCAQGTSVPFTFGQGTKLEIK
B19: H183/L072 VL L33G (antibody, name in Kabat numbering, V domains shown)
VH: QVQLVESGGGLVQPGRSLRLSCAASGFTFSNAWMHWVRQAPGKGLEWVAQIKDKGNAYAAYYAPSVKGRFTISRDDSKNSIYLQMNSLKTEDTAVYYCHYVHYASASTVLPAFGVDAWGQGTTVTVSS
VL: DIVMTQSPLSLPVTPGEPASISCQASQELVHMNRNTYGHWYQQKPGQAPRLLIYKVSNRFPGVPDRFSGSGSGTDFTLKISRVEAEDVGVYYCAQGTSVPFTFGQGTKLEIK
B20: H183/L072 VL L33H (antibody, name in Kabat numbering, V domains shown)
VH: QVQLVESGGGLVQPGRSLRLSCAASGFTFSNAWMHWVRQAPGKGLEWVAQIKDKGNAYAAYYAPSVKGRFTISRDDSKNSIYLQMNSLKTEDTAVYYCHYVHYASASTVLPAFGVDAWGQGTTVTVSS
VL: DIVMTQSPLSLPVTPGEPASISCQASQELVHMNRNTYHHWYQQKPGQAPRLLIYKVSNRFPGVPDRFSGSGSGTDFTLKISRVEAEDVGVYYCAQGTSVPFTFGQGTKLEIK

The experiment concerns the target T1, Human CD3eg linker. Kind of experiment: SPR; fold vs parent H183/L072. For orientation: SPR reads the build-up and loss of mass on a sensor chip optically.
Consider B1, for which the “fold change of affinity” value stood at 0 fold. Consider B2, for which the “fold change of affinity” value turned out to be 0 fold. In the case of B3 it was 0 fold; in that of B4, 0.6 fold.

Regarding B5, the “fold change of affinity” value came out at 0.6 fold. With B6, the “fold change of affinity” value was found to be 0 fold.

Take B7: the “fold change of affinity” value worked out at 0.7 fold.

With B8, the “fold change of affinity” value stood at 0 fold. As for B9, the “fold change of affinity” value is 0 fold. Next, B10: 0 fold; B11: 1.7 fold.

With B12, the “fold change of affinity” value turned out to be 0 fold.

Take B13: the “fold change of affinity” value was 1.1 fold. With B14, the “fold change of affinity” value stood at 0.5 fold. As for B15, the “fold change of affinity” value came to 1.7 fold. As to B16, the “fold change of affinity” value was 1.1 fold. In the case of B17 it was 1.8 fold; in that of B18, 0 fold; in that of B19, 0 fold.

Turning to B20, the “fold change of affinity” value was 1.4 fold.

For the origin of these results see patent US20210388087A1 (Chugai, published 2021).
